Experimental data taken from patent US20080249008A1 (published 2008).

B1: EGF mutant clone 121 (competitor on NR6 cells) (ligand)
chain: NSDPKCPLSHEGYCLNDGVCMYIGTLDRYACNCVVGYVGERCQYRDLKWLALR
B2: EGF mutant clone 30 (soluble) (ligand)
chain: SSNSGCPLSHDGYCLHDGVCMYIEALDRYACNCVVGYAGERCQYRDLKWWELR
notes: Produced solubly

Legend:
[1] = molecular target: T1, EGFR on NR6 fibroblast cells (UniProt P00533 25-1210, limits assumed); assay: competition for binding to fibroblast cells, flow cytometry
T1 construct: whole, on cells; also called fibroblast cells expressing EGFR; NR6 fibroblasts
Experimental: (§1) Fluorescence intensity of cell surface labeling was measured by flow cytometry.

[2] = molecular target: T1, EGFR on NR6 fibroblast cells; assay: competition with Alexa-488 labeled wt EGF on NR6 fibroblast cells, flow cytometry, 2 hr at 4 C
Experimental: as §1

Binder | IC50 [1] [nM] | Kd [2] [nM]
B1 | 0.14 | –
B2 | – | 0.56
